Data as given in FireProtDB (doi:10.1073/pnas.0711253105).
“And” between values parts separate entries of the source, which are not always exact repeats. Equal entries are not always repeated.

Conditions: Meleagris gallopavo; pH 8; Thermal; Activity; Tris 20 mM; NaCl 0.4 M; structure 2VT4

Chain of Beta-1 adrenergic receptor R68S|M90V|V230A|F327A|A334L, P07700 R68S M90V V230A F327A A334L (P07700 whole entry R68S/M90V/V230A/F327A/A334L): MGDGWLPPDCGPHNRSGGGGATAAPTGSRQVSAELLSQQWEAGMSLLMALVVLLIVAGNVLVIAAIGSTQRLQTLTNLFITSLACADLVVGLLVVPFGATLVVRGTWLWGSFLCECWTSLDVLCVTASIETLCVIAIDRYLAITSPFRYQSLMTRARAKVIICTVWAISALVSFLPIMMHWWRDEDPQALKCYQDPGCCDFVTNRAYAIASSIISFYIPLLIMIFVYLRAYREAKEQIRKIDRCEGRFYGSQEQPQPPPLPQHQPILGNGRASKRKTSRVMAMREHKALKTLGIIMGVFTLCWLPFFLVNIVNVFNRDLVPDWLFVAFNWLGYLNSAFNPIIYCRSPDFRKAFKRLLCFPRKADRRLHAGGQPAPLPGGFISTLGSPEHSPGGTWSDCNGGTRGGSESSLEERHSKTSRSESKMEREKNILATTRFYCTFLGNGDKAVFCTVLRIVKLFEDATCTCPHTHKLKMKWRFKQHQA
Chain of Beta-1 adrenergic receptor Y227A|A234L|A334L, P07700 Y227A A234L A334L (P07700 whole entry Y227A/A234L/A334L): as the sequence (P07700 whole entry R68S/M90V/V230A/F327A/A334L) above, with S68R, V90M, Y227A, A230V, A234L, A327F counted along it
Chain of Beta-1 adrenergic receptor R68S|M90V|V230A|A334L, P07700 R68S M90V V230A A334L (P07700 whole entry R68S/M90V/V230A/A334L): as the sequence (P07700 whole entry R68S/M90V/V230A/F327A/A334L) above, with A327F counted along it
Chain of Beta-1 adrenergic receptor R68S|M90V|Y227A|V230A|F327A|A334L, P07700 R68S M90V Y227A V230A F327A A334L (P07700 whole entry R68S/M90V/Y227A/V230A/F327A/A334L): as the sequence (P07700 whole entry R68S/M90V/V230A/F327A/A334L) above, with Y227A counted along it
Chain of Beta-1 adrenergic receptor M90V|F338M, P07700 M90V F338M (P07700 whole entry M90V/F338M): as the sequence (P07700 whole entry R68S/M90V/V230A/F327A/A334L) above, with S68R, A230V, A327F, L334A, F338M counted along it
Chain of Beta-1 adrenergic receptor G67A|G98A|V230A, P07700 G67A G98A V230A (P07700 whole entry G67A/G98A/V230A): as the sequence (P07700 whole entry R68S/M90V/V230A/F327A/A334L) above, with G67A, S68R, V90M, G98A, A327F, L334A counted along it
Chain of Beta-1 adrenergic receptor R68S|A234L|A334L, P07700 R68S A234L A334L (P07700 whole entry R68S/A234L/A334L): as the sequence (P07700 whole entry R68S/M90V/V230A/F327A/A334L) above, with V90M, A230V, A234L, A327F counted along it
Chain of Beta-1 adrenergic receptor G98A|D322A, P07700 G98A D322A (P07700 whole entry G98A/D322A): as the sequence (P07700 whole entry R68S/M90V/V230A/F327A/A334L) above, with S68R, V90M, G98A, A230V, D322A, A327F, L334A counted along it
Chain of Beta-1 adrenergic receptor R68S|Y227A|A234L|A282L, P07700 R68S Y227A A234L A282L (P07700 whole entry R68S/Y227A/A234L/A282L): as the sequence (P07700 whole entry R68S/M90V/V230A/F327A/A334L) above, with V90M, Y227A, A230V, A234L, A282L, A327F, L334A counted along it
Chain of Beta-1 adrenergic receptor M90V|I129V, P07700 M90V I129V (P07700 whole entry M90V/I129V): as the sequence (P07700 whole entry R68S/M90V/V230A/F327A/A334L) above, with S68R, I129V, A230V, A327F, L334A counted along it
Chain of Beta-1 adrenergic receptor R68S|M90V|Y227A|V230A|F327A|F338M, P07700 R68S M90V Y227A V230A F327A F338M (P07700 whole entry R68S/M90V/Y227A/V230A/F327A/F338M): as the sequence (P07700 whole entry R68S/M90V/V230A/F327A/A334L) above, with Y227A, L334A, F338M counted along it
Chain of Beta-1 adrenergic receptor G67A|G98A|V230A|D322A, P07700 G67A G98A V230A D322A (P07700 whole entry G67A/G98A/V230A/D322A): as the sequence (P07700 whole entry R68S/M90V/V230A/F327A/A334L) above, with G67A, S68R, V90M, G98A, D322A, A327F, L334A counted along it
Chain of Beta-1 adrenergic receptor M90V|Y227A|F338M, P07700 M90V Y227A F338M (P07700 whole entry M90V/Y227A/F338M): as the sequence (P07700 whole entry R68S/M90V/V230A/F327A/A334L) above, with S68R, Y227A, A230V, A327F, L334A, F338M counted along it
Chain of Beta-1 adrenergic receptor R68S|Y227A|A234L|A334L, P07700 R68S Y227A A234L A334L (P07700 whole entry R68S/Y227A/A234L/A334L): as the sequence (P07700 whole entry R68S/M90V/V230A/F327A/A334L) above, with V90M, Y227A, A230V, A234L, A327F counted along it
Chain of Beta-1 adrenergic receptor R68S|A334L, P07700 R68S A334L (P07700 whole entry R68S/A334L): as the sequence (P07700 whole entry R68S/M90V/V230A/F327A/A334L) above, with V90M, A230V, A327F counted along it
Chain of Beta-1 adrenergic receptor G67A|G98A, P07700 G67A G98A (P07700 whole entry G67A/G98A): as the sequence (P07700 whole entry R68S/M90V/V230A/F327A/A334L) above, with G67A, S68R, V90M, G98A, A230V, A327F, L334A counted along it
Chain of Beta-1 adrenergic receptor M90V|Y227A, P07700 M90V Y227A (P07700 whole entry M90V/Y227A): as the sequence (P07700 whole entry R68S/M90V/V230A/F327A/A334L) above, with S68R, Y227A, A230V, A327F, L334A counted along it

Substance	Tm	change of melting temperature, mutant - wild type (higher = more stable)
Beta-1 adrenergic receptor M90V|I129V, P07700 M90V I129V	40 °C	8.3 °C
Beta-1 adrenergic receptor R68S|A334L, P07700 R68S A334L	39.1 °C	7.4 °C
Beta-1 adrenergic receptor G67A|G98A|V230A, P07700 G67A G98A V230A	38 °C	6.3 °C
Beta-1 adrenergic receptor G67A|G98A, P07700 G67A G98A	35.5 °C	3.8 °C
Beta-1 adrenergic receptor R68S|M90V|V230A|A334L, P07700 R68S M90V V230A A334L	46.9 °C	15.2 °C
Beta-1 adrenergic receptor R68S|M90V|Y227A|V230A|F327A|F338M, P07700 R68S M90V Y227A V230A F327A F338M	49 °C	17.3 °C
Beta-1 adrenergic receptor R68S|M90V|V230A|F327A|A334L, P07700 R68S M90V V230A F327A A334L	47.3 °C and 48.4 °C	15.6 °C and 16.7 °C
Beta-1 adrenergic receptor R68S|A234L|A334L, P07700 R68S A234L A334L	41.9 °C	10.2 °C
Beta-1 adrenergic receptor Y227A|A234L|A334L, P07700 Y227A A234L A334L	41.6 °C	9.9 °C
Beta-1 adrenergic receptor R68S|Y227A|A234L|A282L, P07700 R68S Y227A A234L A282L	41.6 °C	9.9 °C
Beta-1 adrenergic receptor G98A|D322A, P07700 G98A D322A	35 °C	3.3 °C
Beta-1 adrenergic receptor M90V|Y227A, P07700 M90V Y227A	45.2 °C	13.5 °C
Beta-1 adrenergic receptor G67A|G98A|V230A|D322A, P07700 G67A G98A V230A D322A	40.9 °C	9.2 °C
Beta-1 adrenergic receptor R68S|M90V|Y227A|V230A|F327A|A334L, P07700 R68S M90V Y227A V230A F327A A334L	48.2 °C	16.5 °C
Beta-1 adrenergic receptor M90V|F338M, P07700 M90V F338M	43 °C	11.3 °C
Beta-1 adrenergic receptor M90V|Y227A|F338M, P07700 M90V Y227A F338M	45.2 °C	13.5 °C
Beta-1 adrenergic receptor R68S|Y227A|A234L|A334L, P07700 R68S Y227A A234L A334L	43.7 °C	12 °C
